Data reported in PMC5913291.

Target: T1, Interferon regulatory factor 3 (IRF-3) (human (endogenous in HEK293T)), Q14653
T1 chain: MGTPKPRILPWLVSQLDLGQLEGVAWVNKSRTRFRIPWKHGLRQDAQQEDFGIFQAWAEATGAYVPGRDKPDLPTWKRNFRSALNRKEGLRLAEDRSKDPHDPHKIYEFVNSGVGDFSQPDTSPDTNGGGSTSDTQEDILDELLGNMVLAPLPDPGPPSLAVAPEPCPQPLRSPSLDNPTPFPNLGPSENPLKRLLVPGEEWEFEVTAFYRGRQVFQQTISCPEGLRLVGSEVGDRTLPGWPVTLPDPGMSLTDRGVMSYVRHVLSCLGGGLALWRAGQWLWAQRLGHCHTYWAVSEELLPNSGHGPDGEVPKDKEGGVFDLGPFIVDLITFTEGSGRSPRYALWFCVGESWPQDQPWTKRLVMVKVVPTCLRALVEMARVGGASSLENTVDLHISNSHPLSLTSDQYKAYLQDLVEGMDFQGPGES
Experiment: native gel or EMSA; lysates of HEK293T cells transfected with HCV 3'-UTR RNA, left untreated or treated with 2.5 mM cFP, 12 h post-transfection; native PAGE and immunoblot for IRF-3 dimers
Conditions: remark: other sources report otherwise

B1: Interferon regulatory factor 3 (IRF-3), Q14653 1-427 (natural protein)
chain: MGTPKPRILPWLVSQLDLGQLEGVAWVNKSRTRFRIPWKHGLRQDAQQEDFGIFQAWAEATGAYVPGRDKPDLPTWKRNFRSALNRKEGLRLAEDRSKDPHDPHKIYEFVNSGVGDFSQPDTSPDTNGGGSTSDTQEDILDELLGNMVLAPLPDPGPPSLAVAPEPCPQPLRSPSLDNPTPFPNLGPSENPLKRLLVPGEEWEFEVTAFYRGRQVFQQTISCPEGLRLVGSEVGDRTLPGWPVTLPDPGMSLTDRGVMSYVRHVLSCLGGGLALWRAGQWLWAQRLGHCHTYWAVSEELLPNSGHGPDGEVPKDKEGGVFDLGPFIVDLITFTEGSGRSPRYALWFCVGESWPQDQPWTKRLVMVKVVPTCLRALVEMARVGGASSLENTVDLHISNSHPLSLTSDQYKAYLQDLVEGMDFQGPGES
In the case of B1, the stoichiometry N is reported as 2.
